Measured values reported in paper PMC9091212.

Target: TGFβRII (UniProt P37173)
Assay: anti-FLAG IP, TGFβRII western blot
Details: reference: wild-type TGFβRI-FLAG; sites Y182

binding against the reference: weaker
Substance: TGFβRI (from UniProt P36897) Y182F
